Drawing on article PMC12860359 (2025), this text covers koff and Kd for three molecules.

The term koff denotes the rate constant with which the complex falls apart. The term Kd denotes the concentration at which binding is half-saturated. Higher therefore signals weaker binding.

Substitutions are numbered along the chain they refer to.

Experiment [1] concerns the target T1, MBP-HA Rap1B WT (human, UniProt P61224-1 1-184).
T1 chain: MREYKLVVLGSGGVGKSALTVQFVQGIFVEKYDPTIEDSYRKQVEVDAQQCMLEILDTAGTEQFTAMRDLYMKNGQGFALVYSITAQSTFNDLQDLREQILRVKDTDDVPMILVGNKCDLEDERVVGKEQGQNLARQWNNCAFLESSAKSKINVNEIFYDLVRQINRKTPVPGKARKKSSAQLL
Nature of the experiment: BLI; GTPγS-bound Rap1B.

Experiment [2] concerns the target T1, MBP-HA Rap1B WT. The experiment in a line: BLI; GDP-bound Rap1B. On the technique in general: In BLI a coated tip is dipped into the sample, and binding shifts an interference pattern.
The target in experiment [3] is T1, MBP-HA Rap1B WT. The experiment in a line: BLI; GTPγS-bound Rap1B.

B1: VHH-hFcS A47 (Fc fusion)
chain: EVQLQASGGGFVQPGGSLRLSCAASGFTSKNTIMGWFRQAPGKEREFVSAISSAPGYWEYYADSVKGRFTISRDNSKNTVYLQMNSLRAEDTATYYCAAPINQAPGRPIRSDQYWGQGTQVTVSS
The molecule B1 registered a koff with MBP-HA Rap1B WT [1] of 0.000574 s⁻¹. The same molecule returned a Kd in the experiment with MBP-HA Rap1B WT [2] of 722 nM.

B2: VHH-hFcS B14 (Fc fusion)
chain: B1 chain with F37Y, F47L
B2 yielded a koff in the experiment with MBP-HA Rap1B WT [1] of 0.00104 s⁻¹. Also, the results for the Kd with MBP-HA Rap1B WT [3] and with MBP-HA Rap1B WT [2] were 25.8 nM and 295 nM, respectively.

B3: VHH-hFcS B89 (Fc fusion)
chain: B1 chain with S111W
In the experiment with MBP-HA Rap1B WT [2], B3 came in with a Kd of 20.2 nM.
